Test results reported in patent US7803382B2, “Method for inducing immune response to NY-CO-58” (Ludwig Institute for Cancer Research Ltd., priority 2001, dated 2010).

Test system: sera from colon cancer patients
Experiment: Spot assay: reactivity of serologically defined colon cancer antigens with colon cancer patient sera
Type: binding, human
Conditions: reactive sera/sera tested; includes autologous where applicable; sera 1:200
Experimental: Serum samples from patients with colon cancer were screened using a modification of the plaque assay, termed a spot assay. In this method, 80×120 mm nitrocellulose membranes were precoated with a film of NZY/0.7% Agarose/2.5 mM IPTG and placed on a reservoir layer of NZY/0.7% Agarose in a 86×128 mm Omni Tray (Nalge Nunc International Corp., Naperville, Ill.). Approximately 1.0×10^5 pfU of monoclonal phage encoding individual serologically defined colon cancer antigens, in a volume of 20 μl, were mixed with 20 μl of exponentially growing E. coli XL-1 Blue MRF and spotted (0.7-μl aliquots) on the precoated nitrocellulose membranes. Membranes were incubated for 15 hours at 37° C. A total of 75 different serologically defined colon cancer antigens were spotted in duplicate per nitrocellulose membrane. The agarose film was then removed from the membrane and the filters were processed for reactivity with individual serum samples (1:200 dilution), as described in Scanlan, et al., Int. J. Cancer 76:652-658 (1998) and Scanlan, et al., Int. J. Cancer 83:456-64, (1999).

B1: TNKL (BC-203): serologically defined colon cancer antigen, protein SEQ ID NO:26 (protein, listed as Homo sapiens)
chain: QGAQRGARVGAAMGLRRSGDSREPSGPGPERVFSGGPRPPARGAGAPAPVAGAVAGCGGGQDHVGSPLRRRGSGLRDAAAEAVEPAARELFEACRNGDVERVKRLVTPEKVNSRDTAGRKSTPLHFAAGFGRKDVVEYLLQNGANVQARDDGGLIPLHNACSFGHAEVVNLLLRHGADPNARDNWNYTPLHEAAIKGKIDVCIVLLQHGAEPTIRNTDGRTALDLADPSAKAVLTGEYKKDELLESARSGNEEKMMALLTPLNVNCHASDGRKSTPLHLAAGYNRVKIVQLLLQHGADVHAKDKGDLVPLHNACSYGHYEVTELLVKHGACVNAMDLWQFTPLHEAASKNRVEVCSLLLSYGADPTLLNCHNKSAIDLAPTPQLKERLAYEFKGHSLLQAAREADVTRIKKHLSLEMVNFKHPQTHETALHCAAASPYPKRKQICELLLRKGANINEKTKEFLTPLHVASEKAHNDVVEVVVKHEAKVNALDNLGQTSLHRAAYCGHLQTCRLLLSYGCDPNIISLQGFTALQMGNENVQQLLQEGISLGNSEADRQLLEAAKAGDVETVKKLCTVQSVNCRDIEGRQSTPLHFAAGYNRVSVVEYLLQHGADVHAKDKGGLVPLHNACSYGHYEVAELLVKHGAVVNVADLWKFTPLHEAAAKGKYEICKLLLQHGADPTKKNRDGNTPLDLVKDGDTDIQDLLRGDAALLDAAKKGCLARVKKLSSPDNVNCRDTQGRHSTPLHLAAGYNNLEVAEYLLQHGADVNAQDKGGLIPLHNAASYGHVDVAALLIKYNACVNATDKWAFTPLHEAAQKGRTQLCALLLAHGADPTLKNQEGQTPLDLVSADDVSALLTAAMPPSALPSCYKPQVLNGVRSPGATADALSSGPSSPSSLSAASSLDNLSGSFSELSSVVSSSGTEGASSLEKKEVPGVDFSITQFVRNLGLEHLMDIFEREQITLDVLVEMGHKELKEIGINAYGHRHKLIKGVERLISGQQGLNPYLTLNTSGSGTILIDLSPDDKEFQSVEEEMQSTVREHRDGGHAGGIFNRYNILKIQKVCNKKLWERYTHRRKEVSEENHNHANERMLFHGSPFVNAIIHKGFDERHAYIGGMFGAGIYFAENSSKSNQYVYGIGGGTGVQFTKTDLVTFATAAALLPGNLGKVFPAVQCNENGTSPPGHHSVTGRPSVNGLALAEYVIYRGEQAYPEYLITYQIMRPEGMVDG
  Reactivity of individual antigens: 6/75
